Reference: FireProtDB (doi:10.1021/bi951726o)

B1: Tryptophan synthase alpha chain, P0A877 (parent)
chain: MERYESLFAQLKERKEGAFVPFVTLGDPGIEQSLKIIDTLIEAGADALELGIPFSDPLADGPTIQNATLRAFAAGVTPAQCFEMLALIRQKHPTIPIGLLMYANLVFNKGIDEFYAQCEKVGVDSVLVADVPVEESAPFRQAALRHNVAPIFICPPNADDDLLRQIASYGRGYTYLLSRAGVTGAENRAALPLNHLVAKLKEYNAAPPLQGFGISAPDQVKAAIDAGAAGAISGSAIVKIIEQHINEPEKMLAALKVFVQPMKAATRS

Variants of: B1
Settings: Escherichia coli (strain K12), pH 7.8, Urea, NMR, Potassium phosphate 58 mM, reversible: yes, structure 1WQ5, whole UniProt chain shown

**Q.** With L100A as the variant, how does the “denaturant midpoint (higher = more stable)” value (from here on “denaturant midpoint”) (25 °C) read?
**A.** 5.2 M

**Q.** And the unfolding free energy (25 °C)?
**A.** 4.7 kcal/mol

**Q.** Which results are given for Y102A?
**A.** denaturant midpoint (higher = more stable) (25 °C): 5 M; unfolding free energy (25 °C): 5.4 kcal/mol

**Q.** With I95A as the variant, how does the “denaturant midpoint” value (25 °C) read?
**A.** 6.2 M

**Q.** What about the unfolding free energy (25 °C) of the same variant?
**A.** 7.9 kcal/mol

**Q.** Which results are given for P93A H244A?
**A.** denaturant midpoint (higher = more stable) (25 °C): 5.4 M; unfolding free energy (25 °C): 3.4 kcal/mol

**Q.** For H244A, which “denaturant midpoint” value (5 °C) is on record?
**A.** 4.8 M

**Q.** And the unfolding free energy (5 °C)?
**A.** 4 kcal/mol

**Q.** Which “denaturant midpoint” value (25 °C) does the source give for P96A here?
**A.** 8.6 M

**Q.** What about the unfolding free energy (25 °C) of the same variant?
**A.** 4.9 kcal/mol
